From US20250340666A1 (REGENTS OF THE UNIVERSITY OF COLORADO A BODY CORPORATE, published 2025)

Key:
[1] = target: T1, CD99 epitope peptide antigen (15 amino acid sequence, SEQ ID NO: 1) (human); test: BLI, OctetRED 384, SA biosensor
T1 construct: It was used with an SA (streptavidin) biosensor
T1 peptide: DGENDDPRPPNPPKC
Description: The affinity of one embodiment of the disclosed anti-CD99 antibody was tested against the CD99 epitope. Specifically, the epitope was a peptide antigen and the anti-CD99 antibody was the embodiment of 10D1-1 human IgG4/light chain1. As shown in FIG. 20. affinity was analyzed using an SA biosensor, and association and dissociation constants were monitored using OctetRED 384. […] 400 pM, 350 pM, 300 pM, 250 pM, 200 pM, 150 pM, 100 pM, 90 pM, 80 pM, 70 pM. 60 pM, 50 pM, 40 pM, 30 pM, 20 pM, or 10 pM, and less than about 1 pM, 10 pM, 50 pM, 100 pM, 200 pM, 300 pM, 400 pM, 500 pM, 600 pM. 700 pM, 800 pM, or900 pM.

human CD99 = target: T2, human CD99 (human, UniProt P14209 23-185); test: flow cytometry on DIPG cells: pre-incubation with 10D1-CD99 antibody, then detection of CD99 with the commercial 0662 CD99 antibody (the competitor)
T2 construct: whole, on cells; Endogenous CD99 on patient-derived DIPG cells (flow cytometry) and DIPG tumor tissue sections (IHC); also called MIC2/CD99; cell surface CD99 protein
T2 sequence (looked up): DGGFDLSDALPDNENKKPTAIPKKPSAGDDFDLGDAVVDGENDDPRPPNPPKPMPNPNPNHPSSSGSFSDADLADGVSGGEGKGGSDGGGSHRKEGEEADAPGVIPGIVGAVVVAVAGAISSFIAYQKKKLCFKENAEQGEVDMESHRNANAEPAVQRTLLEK
Description: The engagement/binding of the presently disclosed 10D1-CD99 antibody to the human CD99 epitope was tested.

Kd [1]: 0.436 nM | koff [1]: 0.000744 s⁻¹ | kon [1]: ~1.71e+06 M⁻¹ s⁻¹ | binding result (human CD99): binds
B1: 10D1-CD99 antibody (antibody, V domains shown)
VH: EVQLQQSGPELVKPGASVKISCKASGYSFTGYYMHWVKQSHVKSLEWIGRINPYTGATTYNQIFKDKATLTLDKSSSTAYMELHSLTSEDSAIFYCARYYYGNNYNVYLDYWGQGTTLTVSS
VL: DIQLTQTTSSLSASLGDRVTISCSASQGISNYLSWYQQKPDGTFKLLIYYTSTLHSGVPSRFSGSGSGTDYSLTISNLEPEDIATYYCQQYSNLPWTFGGGTRLEIK
notes: also called rh10D1 anti-CD99 antibody; rh10D1-CD99
